Assay results published in patent publication US7888089B2, “eNOS mutations useful for gene therapy and therapeutic screening” (Yale University, priority 1999, dated 2011).
“Also recorded” adds a separate entry of the source. Read-outs that look alike come from different tables or passages of the source.

Experiments:
[1] = system: Akt; test: In vitro kinase reaction with Akt immunoprecipitated from COS cells; type: biochemical; conditions: HA-Akt immunoprecipitate, n=3
[2] = system: eNOS; test: NOS activity (3H-L-arginine to 3H-L-citrulline) in COS cell lysates; type: biochemical, bovine; conditions: COS cells transfected with eNOS only, n=3
From the text: NOS activity assays: The conversion of ^3H-L-arginine to ^3H-L-citrulline was used to determine NOS activity in COS cell or endothelial cell lysates as previously described by Garcia-Cardena et al. (1998).

[3] = system: Akt; test: 32P phosphorylation of eNOS in intact transfected COS cells; type: cell-based; conditions: intact COS cells, 32P-orthophosphate
Description: Phosphorylation studies in vivo and in vitro: For in vivo phosphorylation studies, COS cells were transfected with the cDNAs for wild-type or S635, 1179A eNOS and HA-Akt overnight. 36 hrs after transfection, cells were placed into dialyzed serum replete, phosphate-free Dulbecco's minimum essential medium supplemented with 80 μCi/ml of ^32P orthophosphoric acid for 3 hr. Some cells were pretreated with wortmannin (500 nM) in the phosphate-free media for 1 hr and during the labeling.

[4] = system: eNOS; test: Conversion of L-arginine to L-citrulline by purified eNOS; type: biochemical, bovine; conditions: for Kcat (CaM, L-Citrulline): CaM activation of NOS activity
Description: The conversion of L-arginine to L-citrulline was assayed as described previously by Bredt et al. (1990). Briefly, eNOS (0.25-2 μg) was incubated for 3-10 min at 23° C. in the following reaction mixture: 3 pmol of L-[3H]arginine (55 Ci/mmol), 10-300 μM arginine, 1 mM NADPH, 120-200 nM calmodulin, 2 mM CaCl2, and 30 μM BH4 in a final reaction volume of 50-100 μl. The reaction was terminated by the addition of 0.5 ml of 20 mM HEPES, pH 5.5, containing 2 mM EGTA and EDTA. The reaction mixture was placed over Dowex AG50WX8, and the flow-through was counted on a Packard 1500 liquid scintillation analyzer.

[5] = system: eNOS; test: Hemoglobin capture assay of NO production by purified eNOS; type: biochemical, bovine; conditions: for Kcat (substrate Arginine, Hemoglobin capture): rate of NO production vs L-arginine, optimal conditions
Description: Assay for NOS Activity—NO production was measured by the hemoglobin capture assay as described (Kelm et al., 1988). Briefly, the reaction mixture contained eNOS (0.5-2.5 μg), oxyhemoglobin (8 μM), L-arginine (100 μM), BH4 (5 μM), CaCl2 (120 μM), calmodulin (120-200 nM), and NADPH (100 μM) in HEPES buffer (50 mM), pH 7.4. […] Under these conditions, free calcium was calculated using the WinMAXC program, version
NOS activity was monitored for linearity over 2 min at 401 nm, and NO production was calculated based on the change of absorbance using the extinction coefficient of 60 mM^−1 cm^−1. All reactions were carried out at 23° C., and each data point represents 3-8 observations. The extinction coefficient of 0.0033 μM^−1 cm^−1 at 276 nm was used for determination of calmodulin concentration. […] When the inactivation of eNOS was determined by the addition of EGTA (200-800 μM) to the reaction mixture, chelator was added 1 min after initiation of the reaction by NADPH. Identical conditions were used when NADPH-cytochrome c reductase activity was examined. These reactions contained CaM (120 nM) and CaCl2 (200 μM) in a 0.5-ml volume with eNOS (0.5 μg).

[6] = system: cytochrome c; test: NADPH-cytochrome c reductase activity of purified eNOS; type: biochemical; conditions: for Kcat (CaM, Cytochrome c): CaM activation of cytochrome c reduction; for EC50: cytochrome c reduction; for Km: Km for NADPH; for Kcat − CaM (NADPH, Cytochrome c) / Kcat + CaM (NADPH, Cytochrome c): NADPH dependence
Description: Assays for Reductase Activity—NADPH-cytochrome c reductase activity and 2,6-dichlorophenolindophenol (DCIP) reduction were measured as a change in absorbance at 550 nm as described previously by Martasek et al. (1999) and Masters et al. (1967) using an extinction coefficient of 0.021 μM^−1 cm^−1 for both cytochrome c and DCIP. Briefly, a reaction mixture (1 ml) contained either cytochrome c (90 μM); DCIP (36 μM), HEPES buffer (50 mM) at pH 7.6, NaCl (250 mM), NADPH (100 μM), calmodulin (120 nM), and CaCl2 (200 μM); or other substances as indicated. The reaction was monitored for 60 s (at 23° C.) after the addition of eNOS. When inactivation of reductase activity was determined by the addition of EGTA (200-800 μM), chelator was added 1 min after initiation of the reaction and monitored for an additional 1 min. The reaction contained HEPES buffer (50 mM) at pH 7.6, CaM (120 nM), and CaCl2 (200 μM) and was initiated with NADPH (100 μM). No NaCl was added in experiments that examined EGTA inactivation of eNOS to mimic the conditions used in the hemoglobin capture experiments. […] Determination of the calcium EC50 for eNOS was performed as described above for the hemoglobin capture assay.

B1: Wild type: Wild type bovine endothelial nitric oxide synthase (eNOS) (protein, UniProt P29473 2-1205, looked up)
Nitric oxide synthase 3: GNLKSVGQEPGPPCGLGLGLGLGLCGKQGPASPAPEPSRAPAPATPHAPDHSPAPNSPTLTRPPEGPKFPRVKNWELGSITYDTLCAQSQQDGPCTPRCCLGSLVLPRKLQTRPSPGPPPAEQLLSQARDFINQYYSSIKRSGSQAHEERLQEVEAEVASTGTYHLRESELVFGAKQAWRNAPRCVGRIQWGKLQVFDARDCSSAQEMFTYICNHIKYATNRGNLRSAITVFPQRAPGRGDFRIWNSQLVRYAGYRQQDGSVRGDPANVEITELCIQHGWTPGNGRFDVLPLLLQAPDEAPELFVLPPELVLEVPLEHPTLEWFAALGLRWYALPAVSNMLLEIGGLEFSAAPFSGWYMSTEIGTRNLCDPHRYNILEDVAVCMDLDTRTTSSLWKDKAAVEINLAVLHSFQLAKVTIVDHHAATVSFMKHLDNEQKARGGCPADWAWIVPPISGSLTPVFHQEMVNYILSPAFRYQPDPWKGSATKGAGITRKKTFKEVANAVKISASLMGTLMAKRVKATILYASETGRAQSYAQQLGRLFRKAFDPRVLCMDEYDVVSLEHEALVLVVTSTFGNGDPPENGESFAAALMEMSGPYNSSPRPEQHKSYKIRFNSVSCSDPLVSSWRRKRKESSNTDSAGALGTLRFCVFGLGSRAYPHFCAFARAVDTRLEELGGERLLQLGQGDELCGQEEAFRGWAKAAFQASCETFCVGEEAKAAAQDIFSPKRSWKRQRYRLSTQAEGLQLLPGLIHVHRRKMFQATVLSVENLQSSKSTRATILVRLDTAGQEGLQYQPGDHIGICPPNRPGLVEALLSRVEDPPPPTESVAVEQLEKGSPGGPPPSWVRDPRLPPCTLRQALTFFLDITSPPSPRLLRLLSTLAEEPSEQQELETLSQDPRRYEEWKWFRCPTLLEVLEQFPSVALPAPLLLTQLPLLQPRYYSVSSAPNAHPGEVHLTVAVLAYRTQDGLGPLHYGVCSTWLSQLKTGDPVPCFIRGAPSFRLPPDPYVPCILVGPGTGIAPFRGFWQERLHDIESKGLQPAPMTLVFGCRCSQLDHLYRDEVQDAQERGVFGRVLTAFSREPDSPKTYVQDILRTELAAEVHRVLCLERGHMFVCGDVTMATSVLQTVQRILATEGDMELDEAGDVIGVLRDQQRYHEDIFGLTLRTQEVTSRIRTQSFSLQERHLRGAVPWAFDPPGPDTPGP
[1]
  phosphorylation of substrate by active Akt: 115.4±3.8 pmol of ATP/nmol substrate
[2]
  NOS activity in lysates: 85.3±27.0 pmol L-citrulline generated/mg protein
[3]
  enhancement in phosphorylation on co-expression of Akt relative to non-stimulated cells: 2 fold
[4]
  Kcat (CaM, L-Citrulline): 0.367 ± 0.033 s⁻¹
[4]; listed as wild type
  Kcat (CaM, L-Citrulline): 0.367 s⁻¹
[4]; EC50 for CaM, NOS activity
  EC50: 8 nM
[5]; 600 μM EGTA, 200 μM calcium, listed as wild type eNOS
  NO production after calcium chelation with EGTA: no activity was detected; also recorded: no detectable activity
[5]; EC50 for free calcium, NO production, 250 nM CaM, read-out: EC50 (Ca2+, Hemoglobin capture, 100 mM KCl)
  EC50: 310 nM
[5]; Km for L-arginine, read-out: Km (substrate Arginine, Hemoglobin capture)
  Km: 1.8 µM
[5]; Km for NADPH, in presence of CaM, read-out: Km (NADPH, Hemoglobin capture)
  Km: 8 µM
[5]; NADPH dependence, in presence of CaM
  Kcat (NADPH, Hemoglobin capture): 0.283 ± 0.017 s⁻¹
[5]; calcium activation, 250 nM CaM
  Kcat (Ca2+, Hemoglobin capture, 100 mM KCl): 0.967 ± 0.017 s⁻¹
[5]; calcium-dependent NO production
  maximal turnover rate, FIG. 8C: 58 min1
[5]; calmodulin-dependent hemoglobin capture
  maximal turnover rate, FIG. 8A: 22 min⁻¹
[5]
  Kcat (substrate Arginine, Hemoglobin capture): 0.45 ± 0.017 s⁻¹
[5]; listed as wild type
  Kcat (substrate Arginine, Hemoglobin capture): 0.45 ± 0.017 s⁻¹
[6]
  Kcat (CaM, Cytochrome c): 10.3 ± 1.3 s⁻¹
[6]; listed as wild type eNOS
  Kcat (CaM, Cytochrome c): 10.3 s⁻¹
[6]; EC50 for CaM, listed as wild type, read-out: EC50 (CaM, Cytochrome c)
  EC50: 21 nM
[6]; EC50 for CaM, read-out: EC50 (CaM, Cytochrome c)
  EC50: 13 nM
[6]; EC50 for free calcium, read-out: EC50 (Ca2+, Cytochrome c, 100 mM KCl)
  EC50: 290 nM
[6]; absence of CaM
  Km: 0.4 µM
  Kcat − CaM (NADPH, Cytochrome c): 1.17 ± 0.083 s⁻¹
  cytochrome c reduction, first value of pair (with superoxide dismutase): 86 ± 6 min⁻¹
  cytochrome c reduction, second value of pair (without superoxide dismutase): 95 ± 8 min⁻¹
[6]; presence of CaM
  Km: 0.75 µM
  Kcat + CaM (NADPH, Cytochrome c): 7.67 ± 0.3 s⁻¹
  cytochrome c reduction with superoxide dismutase: 610 ± 51 min⁻¹
  cytochrome c reduction without superoxide dismutase: 866 ± 8 min⁻¹
  relative decrease in cytochrome c activity in the presence of superoxide dismutase: 30%
[6]; absence of CaM, listed as wild type eNOS
  Kcat − CaM (NADPH, Cytochrome c): 1.17 s⁻¹
[6]; presence of CaM, listed as wild type eNOS
  Kcat + CaM (NADPH, Cytochrome c): 7.67 s⁻¹
[6]; calcium activation
  Kcat (Ca2+, Cytochrome c, 100 mM KCl): 31.82 ± 0.55 s⁻¹
[6]; calcium-dependent cytochrome c reduction
  maximal turnover rate, FIG. 8D: 1930 min⁻¹
[6]; calmodulin-dependent cytochrome c reduction
  maximal turnover rate, FIG. 8B: 620 min1
[6]; highest concentration of EGTA
  reductase activity after calcium chelation with EGTA: residual reductase activity was found
[6]; presence of CaM, n=3-5
  CaM-stimulated cytochrome c reduction: 749 ± 35 min⁻¹
[6]; with vs without CaM
  level of stimulation of cytochrome c reduction by CaM: 8 fold
